Measured values from publication PMC3413365 (The Journal of Cell Biology, 2012).

B1: BiP^R470K (natural protein)
chain: not shown
B2: Lucifer yellow–labeled BiP substrate peptide (NH2-HTFPAVLGSC-COOH) (peptide)
peptide: H-HTFPAVLGSC-OH
modifications: also: Lucifer yellow iodoacetamide label, residue not given here
B3: BiP^R492K (natural protein)
chain: not shown

Tests used:
Assay in all cases: fluorescence polarisation
[1] = biological target: B2
[2] = biological target: T1, BiP^R470E (hamster, UniProt G3I8R9 19-654, R470E)
[3] = biological target: T2, H6-tagged hamster BiP, wild type (hamster, UniProt G3I8R9 19-654)
[4] = biological target: T1, BiP^R470E; remark: listed apart in the source
[5] = biological target: T2, H6-tagged hamster BiP, wild type; remark: listed apart in the source
[6] = biological target: BiP^Δ(554–654);R470E (hamster, UniProt G3I8R9 19-553, R470E)
[7] = biological target: Lidless BiP (Δ554-654) (hamster, UniProt G3I8R9 19-553)
Lidless BiP (Δ554-654), sequence (G3I8R9 19-553, stated change not applied): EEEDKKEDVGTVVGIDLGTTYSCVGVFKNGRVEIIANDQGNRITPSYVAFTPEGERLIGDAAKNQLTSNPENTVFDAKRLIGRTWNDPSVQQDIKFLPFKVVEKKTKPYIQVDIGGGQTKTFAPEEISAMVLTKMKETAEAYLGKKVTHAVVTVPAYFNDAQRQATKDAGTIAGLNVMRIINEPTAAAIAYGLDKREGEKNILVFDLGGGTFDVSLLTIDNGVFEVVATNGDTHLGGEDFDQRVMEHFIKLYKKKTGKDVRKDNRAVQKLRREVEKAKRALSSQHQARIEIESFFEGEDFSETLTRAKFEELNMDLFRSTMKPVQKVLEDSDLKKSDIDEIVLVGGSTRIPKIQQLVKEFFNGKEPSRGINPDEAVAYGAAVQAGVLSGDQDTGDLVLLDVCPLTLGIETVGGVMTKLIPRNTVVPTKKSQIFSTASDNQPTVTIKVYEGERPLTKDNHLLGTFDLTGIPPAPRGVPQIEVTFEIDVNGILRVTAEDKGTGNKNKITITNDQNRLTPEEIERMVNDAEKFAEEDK

T1 sequence (G3I8R9 19-654 R470E): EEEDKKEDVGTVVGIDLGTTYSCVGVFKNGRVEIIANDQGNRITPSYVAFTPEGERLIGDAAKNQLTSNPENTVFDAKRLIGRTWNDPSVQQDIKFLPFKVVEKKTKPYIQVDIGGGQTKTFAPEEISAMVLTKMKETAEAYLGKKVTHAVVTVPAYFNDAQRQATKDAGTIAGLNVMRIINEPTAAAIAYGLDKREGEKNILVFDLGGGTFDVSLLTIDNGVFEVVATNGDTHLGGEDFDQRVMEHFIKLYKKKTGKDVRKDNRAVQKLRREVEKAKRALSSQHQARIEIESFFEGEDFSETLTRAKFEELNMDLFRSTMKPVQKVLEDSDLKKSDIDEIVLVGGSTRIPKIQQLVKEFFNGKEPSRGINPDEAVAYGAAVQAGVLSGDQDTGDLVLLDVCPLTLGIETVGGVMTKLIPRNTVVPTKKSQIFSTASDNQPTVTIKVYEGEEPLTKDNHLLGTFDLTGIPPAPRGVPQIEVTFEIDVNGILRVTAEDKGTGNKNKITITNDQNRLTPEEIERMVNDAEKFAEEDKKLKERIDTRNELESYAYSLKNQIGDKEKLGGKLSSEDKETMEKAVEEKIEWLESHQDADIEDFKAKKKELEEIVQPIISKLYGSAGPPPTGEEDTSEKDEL
T2 sequence (G3I8R9 19-654): as the sequence (G3I8R9 19-654 R470E) above, with E452R counted along it
BiP^Δ(554–654);R470E, sequence (G3I8R9 19-553 R470E): as the sequence (G3I8R9 19-553, stated change not applied) above, with R452E counted along it

B1
fold change of the peptide off-rate against wild type [1]: 3 fold

B2
Kd [2]: 9 µM | Kd [3]: 13 µM | koff [4]: 0.0074 s⁻¹ | koff [5]: 0.0002 s⁻¹ | koff [6]: 0.00328 s⁻¹ | koff [7]: 0.0017 s⁻¹

B3
fold change of the peptide off-rate against wild type [1]: 3 fold
